Experimental data published in publication PMC11906750.
Read-outs that look alike come from different tables or passages of the source.

Tests used:
Assay in all cases: FRET or BRET
[1] = target: HC-Pro^Tu-K-CFP (turnip mosaic virus)
[2] = target: HC-Pro^Tu-CFP (turnip mosaic virus)
[3] = target: HC-Pro^Tu-CFP (turnip mosaic virus); remark: listed apart in the source
[4] = target: HC-Pro^Tu-K-CFP (turnip mosaic virus); remark: listed apart in the source

Molecule: HC-Pro^Tu-K-CFP (natural protein)
- FRET efficiency [1]: 72%

Molecule: HC-Pro^Tu-CFP (natural protein)
- FRET efficiency [2]: 70%

B1: YFP-HEN1 (enzyme)
chain: MAGGGKHTPTPKAIIHQKFGAKASYTVEEVHDSSQSGCLGLAIPQKGPCLYRCHLQLPEFSVVSNVFKKKKDSEQSAAELALDKLGIRPQNDDLTVDEARDEIVGRIKYIFSDEFLSAEHPLGAHLRAALRRDGERCGSVPVSVIATVDAKINSRCKIINPSVESDPFLAISYVMKAAAKLADYIVASPHGLRRKNAYPSEIVEALATHVSDSLHSREVAAVYIPCIDEEVVELDTLYISSNRHYLDSIAERLGLKDGNQVMISRMFGKASCGSECRLYSEIPKKYLDNSSDASGTSNEDSSHIVKSRNARASYICGQDIHGDAILASVGYRWKSDDLDYDDVTVNSFYRICCGMSPNGIYKISRQAVIAAQLPFAFTTKSNWRGPLPREILGLFCHQHRLAEPILSSSTAPVKSLSDIFRSHKKLKVSGVDDANENLSRQKEDTPGLGHGFRCEVKIFTKSQDLVLECSPRKFYEKENDAIQNASLKALLWFSKFFADLDVDGEQSCDTDDDQDTKSSSPNVFAAPPILQKEHSSESKNTNVLSAEKRVQSITNGSVVSICYSLSLAVDPEYSSDGESPREDNESNEEMESEYSANCESSVELIESNEEIEFEVGTGSMNPHIESEVTQMTVGEYASFRMTPPDAAEALILAVGSDTVRIRSLLSERPCLNYNILLLGVKGPSEERMEAAFFKPPLSKQRVEYALKHIRESSASTLVDFGCGSGSLLDSLLDYPTSLQTIIGVDISPKGLARAAKMLHVKLNKEACNVKSATLYDGSILEFDSRLHDVDIGTCLEVIEHMEEDQACEFGEKVLSLFHPKLLIVSTPNYEFNTILQRSTPETQEENNSEPQLPKFRNHDHKFEWTREQFNQWASKLGKRHNYSVEFSGVGGSGEVEPGFASQIAIFRREASSVENVAESSMQPYKVIWEWKKEDVEKKKTDL
- FRET efficiency [3]: 55%

B2: YFP-ATG8a (natural protein)
chain: MAKSSFKISNPLEARMSESSRIREKYPDRIPVIVEKAGQSDVPDIDKKKYLVPADLTVGQFVYVVRKRIKLGAEKAIFVFVKNTLPPTAALMSAIYEEHKDEDGFLYMTYSGENTFG
- FRET efficiency [3]: 30%
- FRET efficiency [4]: 30%
